The values below come from patent US20230002757A1 (ZHEJIANG NANOMAB TECHNOLOGY CENTER, published 2023).

Holding throughout (assay): ELISA, supernatant
(In an ELISA, binding on a coated surface is turned into a signal by an enzyme label.)

One test concerns the target T1, MSLN epitope domain 3 (UniProt Q13421 487-598, limits assumed).
T1 construct: domain: domain 3; also called domain 3 of MSLN

Another test addresses T2, MSLN epitope domain 2 (UniProt Q13421 391-486, limits assumed).
T2 construct: domain: domain 2; also called domain 2 of MSLN

The next test addresses T3, MSLN epitope domain 1 (UniProt Q13421 296-390, limits assumed).
T3 construct: domain: domain 1; also called domain 1 of MSLN

T1 sequence (Q13421 495-606 limits assumed): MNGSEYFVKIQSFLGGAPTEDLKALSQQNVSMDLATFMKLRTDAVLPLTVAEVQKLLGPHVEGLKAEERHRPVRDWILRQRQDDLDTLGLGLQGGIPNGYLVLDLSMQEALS
T2 sequence (Q13421 other isoform, or with tags, fused parts or gaps limits assumed): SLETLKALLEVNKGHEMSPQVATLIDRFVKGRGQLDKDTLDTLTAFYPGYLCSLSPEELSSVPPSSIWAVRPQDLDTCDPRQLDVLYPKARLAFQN
T3 sequence (Q13421 296-390 limits assumed): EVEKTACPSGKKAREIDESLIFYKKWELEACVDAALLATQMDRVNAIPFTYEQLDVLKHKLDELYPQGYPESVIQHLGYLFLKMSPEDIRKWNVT

B1: NBL501#004 (VHH)
VHH: EVQVVESGGGLVQAGGSLRLSCVPSGSISSIYAMGWYRQALGPERELVAAQTLGGGTYYANPVKGRFTIYRDNDKNTLYLQMNNLKPEDTAMYYCATPGEHWGSSDVTNWGQGTQVTVSS
notes: tested as supernatant in ELISA
B1: the binding result with MSLN epitope domain 3 and with MSLN epitope domain 2 was “no binding” in each case.

B2: NBL501#002 (VHH)
VHH: QVQLVESGGGLVQAGGSLRLSCAASISIRRINAMGWYRQAPGKERELVAVISSPNKTLYADSVKGRFTISKDNYTNTLYLQMNSLKPEDTAMYYCSAWRIGVDTTDYYGQGTQVTVSS
notes: as for B1
With B2, the binding result with MSLN epitope domain 3 and with MSLN epitope domain 2 was “no binding” each time.

B3: NBL501#009 (VHH)
VHH: EVQVVESGGGLVQAGGSLRLSCVASGFTFSVAAMRWYRQAPGKQREWVASAFSDGNLHYEDFVKGRFTISRDDAKNTLYLQMDSLKPEDTAVYYCNAGTPSRAYWGQGTQVTVSS
notes: as for B1
Consider B3, for which the binding result with MSLN epitope domain 1 and with MSLN epitope domain 3 was “no binding” throughout.

B4: NBL501#008 (VHH)
VHH: QVQLVESGGGLVQAGGSLRLSCVASGIVFRLNAMGWFRQAPGRERELVATIASGGWAYYGDTMSGRVTISRDNDKNTLYLEMNSLKPEDSAMYYCSAGGARPHSWGQGTQVTVSS
notes: as for B1
As to B4, the binding result with MSLN epitope domain 3 and in the test with MSLN epitope domain 2 was “no binding” each time.
